T1: ACAD9 (non-tagged wild type) (human, UniProt Q9H845 38-621)
T1 sequence: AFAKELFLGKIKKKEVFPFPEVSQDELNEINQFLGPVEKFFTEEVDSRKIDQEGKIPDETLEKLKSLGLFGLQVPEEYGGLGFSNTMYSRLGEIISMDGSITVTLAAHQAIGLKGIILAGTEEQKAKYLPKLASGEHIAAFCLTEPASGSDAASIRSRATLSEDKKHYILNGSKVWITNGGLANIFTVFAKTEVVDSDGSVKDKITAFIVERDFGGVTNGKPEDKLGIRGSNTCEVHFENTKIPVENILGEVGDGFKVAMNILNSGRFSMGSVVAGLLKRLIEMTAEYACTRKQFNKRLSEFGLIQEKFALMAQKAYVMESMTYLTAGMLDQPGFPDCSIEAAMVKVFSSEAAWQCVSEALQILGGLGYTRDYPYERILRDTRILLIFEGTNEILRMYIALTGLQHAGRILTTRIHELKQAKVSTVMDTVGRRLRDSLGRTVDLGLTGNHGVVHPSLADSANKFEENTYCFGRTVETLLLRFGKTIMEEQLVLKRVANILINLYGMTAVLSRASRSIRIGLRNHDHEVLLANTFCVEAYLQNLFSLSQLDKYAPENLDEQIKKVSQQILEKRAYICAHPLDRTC

B1: His6-C-ECSIT (C-terminal domain of ECSIT, Leu249-Ser431, with N-terminal His tag) (domain or fragment)
chain: LPKDSTGAADPPQPHIVGIQSPDQQAALARHNPARPVFVEGPFSLWLRNKCVYYHILRADLLPPEEREVEETPEEWNLYYPMQLDLEYVRSGWDNYEFDINEVEEGPVFAMCMAGAHDQATMAKWIQGLQETNPTLAQIPVVFRLAGSTRELQTSSAGLEEPPLPEDHQEEDDNLQRQQQGQS
B2: ECSIT, tag-free (mature human mitochondrial ECSIT) (natural protein)
chain: SSEQSLVPSPPEPRQRPTKALVPFEDLFGQAPGGERDKASFLQTVQKFAEHSVRKRGHIDFIYLALRKMREYGVERDLAVYNQLLNIFPKEVFRPRNIIQRIFVHYPRQQECGIAVLEQMENHGVMPNKETEFLLIQIFGRKSYPMLKLVRLKLWFPRFMNVNPFPVPRDLPQDPVELAMFGLRHMEPDLSARVTIYQVPLPKDSTGAADPPQPHIVGIQSPDQQAALARHNPARPVFVEGPFSLWLRNKCVYYHILRADLLPPEEREVEETPEEWNLYYPMQLDLEYVRSGWDNYEFDINEVEEGPVFAMCMAGAHDQATMAKWIQGLQETNPTLAQIPVVFRLAGSTRELQTSSAGLEEPPLPEDHQEEDDNLQRQQQGQS
B3: C-ECSIT, tag-free (C-terminal domain of ECSIT, Leu249-Ser431) (domain or fragment)
chain: LPKDSTGAADPPQPHIVGIQSPDQQAALARHNPARPVFVEGPFSLWLRNKCVYYHILRADLLPPEEREVEETPEEWNLYYPMQLDLEYVRSGWDNYEFDINEVEEGPVFAMCMAGAHDQATMAKWIQGLQETNPTLAQIPVVFRLAGSTRELQTSSAGLEEPPLPEDHQEEDDNLQRQQQGQS
B4: ACAD9-His6 R469W (enzyme)
chain: AFAKELFLGKIKKKEVFPFPEVSQDELNEINQFLGPVEKFFTEEVDSRKIDQEGKIPDETLEKLKSLGLFGLQVPEEYGGLGFSNTMYSRLGEIISMDGSITVTLAAHQAIGLKGIILAGTEEQKAKYLPKLASGEHIAAFCLTEPASGSDAASIRSRATLSEDKKHYILNGSKVWITNGGLANIFTVFAKTEVVDSDGSVKDKITAFIVERDFGGVTNGKPEDKLGIRGSNTCEVHFENTKIPVENILGEVGDGFKVAMNILNSGRFSMGSVVAGLLKRLIEMTAEYACTRKQFNKRLSEFGLIQEKFALMAQKAYVMESMTYLTAGMLDQPGFPDCSIEAAMVKVFSSEAAWQCVSEALQILGGLGYTRDYPYERILRDTRILLIFEGTNEILRMYIALTGLQHAGRILTTRIHELKQAKVSTVMDTVGWRLRDSLGRTVDLGLTGNHGVVHPSLADSANKFEENTYCFGRTVETLLLRFGKTIMEEQLVLKRVANILINLYGMTAVLSRASRSIRIGLRNHDHEVLLANTFCVEAYLQNLFSLSQLDKYAPENLDEQIKKVSQQILEKRAYICAHPLDRTC
B5: ACAD9-His6 E426Q (enzyme)
chain: AFAKELFLGKIKKKEVFPFPEVSQDELNEINQFLGPVEKFFTEEVDSRKIDQEGKIPDETLEKLKSLGLFGLQVPEEYGGLGFSNTMYSRLGEIISMDGSITVTLAAHQAIGLKGIILAGTEEQKAKYLPKLASGEHIAAFCLTEPASGSDAASIRSRATLSEDKKHYILNGSKVWITNGGLANIFTVFAKTEVVDSDGSVKDKITAFIVERDFGGVTNGKPEDKLGIRGSNTCEVHFENTKIPVENILGEVGDGFKVAMNILNSGRFSMGSVVAGLLKRLIEMTAEYACTRKQFNKRLSEFGLIQEKFALMAQKAYVMESMTYLTAGMLDQPGFPDCSIEAAMVKVFSSEAAWQCVSEALQILGGLGYTRDYPYERILRDTRILLIFQGTNEILRMYIALTGLQHAGRILTTRIHELKQAKVSTVMDTVGRRLRDSLGRTVDLGLTGNHGVVHPSLADSANKFEENTYCFGRTVETLLLRFGKTIMEEQLVLKRVANILINLYGMTAVLSRASRSIRIGLRNHDHEVLLANTFCVEAYLQNLFSLSQLDKYAPENLDEQIKKVSQQILEKRAYICAHPLDRTC
B6: ACAD9-His6 R518H (enzyme)
chain: AFAKELFLGKIKKKEVFPFPEVSQDELNEINQFLGPVEKFFTEEVDSRKIDQEGKIPDETLEKLKSLGLFGLQVPEEYGGLGFSNTMYSRLGEIISMDGSITVTLAAHQAIGLKGIILAGTEEQKAKYLPKLASGEHIAAFCLTEPASGSDAASIRSRATLSEDKKHYILNGSKVWITNGGLANIFTVFAKTEVVDSDGSVKDKITAFIVERDFGGVTNGKPEDKLGIRGSNTCEVHFENTKIPVENILGEVGDGFKVAMNILNSGRFSMGSVVAGLLKRLIEMTAEYACTRKQFNKRLSEFGLIQEKFALMAQKAYVMESMTYLTAGMLDQPGFPDCSIEAAMVKVFSSEAAWQCVSEALQILGGLGYTRDYPYERILRDTRILLIFEGTNEILRMYIALTGLQHAGRILTTRIHELKQAKVSTVMDTVGRRLRDSLGRTVDLGLTGNHGVVHPSLADSANKFEENTYCFGRTVETLLLHFGKTIMEEQLVLKRVANILINLYGMTAVLSRASRSIRIGLRNHDHEVLLANTFCVEAYLQNLFSLSQLDKYAPENLDEQIKKVSQQILEKRAYICAHPLDRTC
B7: ACAD9-His6 R532W (enzyme)
chain: AFAKELFLGKIKKKEVFPFPEVSQDELNEINQFLGPVEKFFTEEVDSRKIDQEGKIPDETLEKLKSLGLFGLQVPEEYGGLGFSNTMYSRLGEIISMDGSITVTLAAHQAIGLKGIILAGTEEQKAKYLPKLASGEHIAAFCLTEPASGSDAASIRSRATLSEDKKHYILNGSKVWITNGGLANIFTVFAKTEVVDSDGSVKDKITAFIVERDFGGVTNGKPEDKLGIRGSNTCEVHFENTKIPVENILGEVGDGFKVAMNILNSGRFSMGSVVAGLLKRLIEMTAEYACTRKQFNKRLSEFGLIQEKFALMAQKAYVMESMTYLTAGMLDQPGFPDCSIEAAMVKVFSSEAAWQCVSEALQILGGLGYTRDYPYERILRDTRILLIFEGTNEILRMYIALTGLQHAGRILTTRIHELKQAKVSTVMDTVGRRLRDSLGRTVDLGLTGNHGVVHPSLADSANKFEENTYCFGRTVETLLLRFGKTIMEEQLVLKWVANILINLYGMTAVLSRASRSIRIGLRNHDHEVLLANTFCVEAYLQNLFSLSQLDKYAPENLDEQIKKVSQQILEKRAYICAHPLDRTC
B8: ACAD9-His6 (wild type ACAD9 with a C-terminal His-tag) (enzyme)
chain: AFAKELFLGKIKKKEVFPFPEVSQDELNEINQFLGPVEKFFTEEVDSRKIDQEGKIPDETLEKLKSLGLFGLQVPEEYGGLGFSNTMYSRLGEIISMDGSITVTLAAHQAIGLKGIILAGTEEQKAKYLPKLASGEHIAAFCLTEPASGSDAASIRSRATLSEDKKHYILNGSKVWITNGGLANIFTVFAKTEVVDSDGSVKDKITAFIVERDFGGVTNGKPEDKLGIRGSNTCEVHFENTKIPVENILGEVGDGFKVAMNILNSGRFSMGSVVAGLLKRLIEMTAEYACTRKQFNKRLSEFGLIQEKFALMAQKAYVMESMTYLTAGMLDQPGFPDCSIEAAMVKVFSSEAAWQCVSEALQILGGLGYTRDYPYERILRDTRILLIFEGTNEILRMYIALTGLQHAGRILTTRIHELKQAKVSTVMDTVGRRLRDSLGRTVDLGLTGNHGVVHPSLADSANKFEENTYCFGRTVETLLLRFGKTIMEEQLVLKRVANILINLYGMTAVLSRASRSIRIGLRNHDHEVLLANTFCVEAYLQNLFSLSQLDKYAPENLDEQIKKVSQQILEKRAYICAHPLDRTC
B9: Loop12-ACAD9 (ACAD9-His6 with the linker between Thr450 and Asp480 replaced by 12 residues of GGS repeats) (enzyme)
chain: AFAKELFLGKIKKKEVFPFPEVSQDELNEINQFLGPVEKFFTEEVDSRKIDQEGKIPDETLEKLKSLGLFGLQVPEEYGGLGFSNTMYSRLGEIISMDGSITVTLAAHQAIGLKGIILAGTEEQKAKYLPKLASGEHIAAFCLTEPASGSDAASIRSRATLSEDKKHYILNGSKVWITNGGLANIFTVFAKTEVVDSDGSVKDKITAFIVERDFGGVTNGKPEDKLGIRGSNTCEVHFENTKIPVENILGEVGDGFKVAMNILNSGRFSMGSVVAGLLKRLIEMTAEYACTRKQFNKRLSEFGLIQEKFALMAQKAYVMESMTYLTAGMLDQPGFPDCSIEAAMVKVFSSEAAWQCVSEALQILGGLGYTRDYPYERILRDTRILLIFEGTNEILRMYIALTGLQHAGRILTTGGSGGSGGSGGSDLGLTGNHGVVHPSLADSANKFEENTYCFGRTVETLLLRFGKTIMEEQLVLKRVANILINLYGMTAVLSRASRSIRIGLRNHDHEVLLANTFCVEAYLQNLFSLSQLDKYAPENLDEQIKKVSQQILEKRAYICAHPLDRTC

Target: T1, ACAD9 (non-tagged wild type)
Assay: SEC

With B1 the “stoichiometry N” value was 1 C-ECSIT monomer per ACAD9 monomer (4:4).

Target: B8
Assay: pull-down

Point of comparison: B3, “stoichiometry N” value ~1 monomer:monomer. Against it:
- B2 — the same, ~1 monomer:monomer

Target: the molecule itself
Assay: SEC

Point of comparison: B4, “stoichiometry N” value 2. Against it:
- B5 — the same, 2
- B6 — the same, 2
- B7 — the same, 2
- B8 — the same, 2
- B9 — the same, 2
- B1 — higher, 4

— paper PMC8497999 (iScience, 2021)
